# Reference: US20260201064A1 (ISU ABXIS, published 2026)
# T1: recombinant human ASM protein (human, UniProt P17405 47-630)
# T1 construct: Recombinant human ASM in solution; also called acid sphingomyelinase (ASM) protein
# T1 sequence: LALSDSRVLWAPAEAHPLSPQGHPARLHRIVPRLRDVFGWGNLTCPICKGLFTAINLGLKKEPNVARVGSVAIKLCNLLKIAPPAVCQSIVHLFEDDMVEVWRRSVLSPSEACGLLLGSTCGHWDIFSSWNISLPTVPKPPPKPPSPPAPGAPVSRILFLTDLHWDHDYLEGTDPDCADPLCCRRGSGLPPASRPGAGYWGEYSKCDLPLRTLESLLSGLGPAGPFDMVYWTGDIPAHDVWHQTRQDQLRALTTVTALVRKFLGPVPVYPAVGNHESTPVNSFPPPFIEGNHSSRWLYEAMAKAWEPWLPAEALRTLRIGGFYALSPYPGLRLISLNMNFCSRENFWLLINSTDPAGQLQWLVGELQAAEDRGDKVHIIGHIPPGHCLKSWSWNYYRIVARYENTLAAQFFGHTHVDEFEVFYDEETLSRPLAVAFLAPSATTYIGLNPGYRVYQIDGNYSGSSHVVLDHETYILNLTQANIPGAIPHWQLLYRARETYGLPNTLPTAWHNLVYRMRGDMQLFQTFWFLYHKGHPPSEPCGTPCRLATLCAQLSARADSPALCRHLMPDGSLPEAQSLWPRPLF
# Target: T1, recombinant human ASM protein
# Assay: BLI (Octet), antibody on AHC sensor
# Experimental: The binding affinity, to the ASM protein, of the produced antibodies specifically binding to the ASM protein and the interactive dynamics therebetween were measured using an Octet® QK384 system (Pall Life Sciences).
# First, an antibody specifically binding to the ASM protein produced in Example 1 was captured using an anti-human IgG Fc capture (AHC) biosensor, and 1.25, 2.5, 5, 10, or 20 nM recombinant human ASM protein solution was added thereto. […] The association constant (Kₐ), dissociation constant (Kd), and equilibrium dissociation constant (KD) for each antibody were determined using Octet® analysis software (Pall Life® Sciences). As a result, the binding affinities, to the human ASM protein, of the antibodies with mutations in the heavy chain CDR regions of the antibody #9104 as depicted in Table 1 are shown in Table 5, and the binding affinities, to the human ASM protein, of the antibodies with mutations of the light chain CDR regions in the antibody #9104 as depicted in Table 2 are shown in Table 6.
# After the small-scale expression in the ExpiCHO cell line as described above, the binding affinity to the human ASM protein was investigated as described in Experimental Example 1. Specifically, the antibody produced by a combination of #9104v-H33 heavy chain variable region and #9104v-L23 light chain variable region was not expressed and thus excluded in the analysis of binding affinity to ASM protein.
Kd [nM],koff [s⁻¹],kon [M⁻¹ s⁻¹],Binder
0.212,4.27e-05,202000,"#9104a-E2 (antibody, human IgG4 S228P, lambda, V domains shown, VH of #9104v-H11 with VL of #9104v-L65; full-length IgG, lambda) VH: EVQLLESGGGLVQPGGSLRLSCAASGFTFSNYYMSWVRQAPGKGLEWVSGIYYGSGIPYYADSVKERFTISRDNSKNTLYLQMNSLRAEDTAVYYCARDTPGFDYWGQGTLVTVSS VL: QSVLTQPPSASGTPGQRVTISCTGSSSNIGNNAVNWYQQLPGTAPKLLIYYDYYQSSGVPDRFSGSKSGTSASLAISGLRSEDEADYYCGAWDYSLSAYVFGGGTKLTVLG"
1.19,7.77e-05,65500,"#9104a-E6 (antibody, human IgG4 S228P, lambda, V domains shown, VH of #9104v-H27 with VL of #9104v-L65; full-length IgG, lambda) VH: EVQLLESGGGLVQPGGSLRLSCAASGFTFSNYYMSWVRQAPGKGLEWVSGTYYDSGYVYYADSVKGRFTISRDNSKNTLYLQMNSLRAEDTAVYYCARDTPGFDYWGQGTLVTVSS VL: QSVLTQPPSASGTPGQRVTISCTGSSSNIGNNAVNWYQQLPGTAPKLLIYYDYYQSSGVPDRFSGSKSGTSASLAISGLRSEDEADYYCGAWDYSLSAYVFGGGTKLTVLG"
0.38,5.66e-05,149000,"#9104a-E8 (antibody, human IgG4 S228P, lambda, V domains shown, VH of #9104v-H33 with VL of #9104v-L65; full-length IgG, lambda) VH: EVQLLESGGGLVQPGGSLRLSCAASGFTFSNYYMSWVRQAPGKGLEWVSGVYYPSGNPYYADSVKGRFTISRDNSKNTLYLQMNSLRAEDTAVYYCARDTPGFDYWGQGTLVTVSS VL: QSVLTQPPSASGTPGQRVTISCTGSSSNIGNNAVNWYQQLPGTAPKLLIYYDYYQSSGVPDRFSGSKSGTSASLAISGLRSEDEADYYCGAWDYSLSAYVFGGGTKLTVLG"
0.211,4.59e-05,218000,"#9104a-E7 (antibody, human IgG4 S228P, lambda, V domains shown, VH of #9104v-H31 with VL of #9104v-L65; full-length IgG, lambda) VH: EVQLLESGGGLVQPGGSLRLSCAASGFTFSNYYMSWVRQAPGKGLEWVSGVYYGSGTPYYADSVKGRFTISRDNSKNTLYLQMNSLRAEDTAVYYCARDTPGFDYWGQGTLVTVSS VL: QSVLTQPPSASGTPGQRVTISCTGSSSNIGNNAVNWYQQLPGTAPKLLIYYDYYQSSGVPDRFSGSKSGTSASLAISGLRSEDEADYYCGAWDYSLSAYVFGGGTKLTVLG"
0.197,4.15e-05,210000,"#9104a-E4 (antibody, human IgG4 S228P, lambda, V domains shown, VH of #9104v-H17 with VL of #9104v-L65; full-length IgG, lambda) VH: EVQLLESGGGLVQPGGSLRLSCAASGFTFSNYYMSWVRRAPGKGLEWVSGIYYGSGTPYYAASVKGRFTISRDNSKNTLYLQMNSLRAEDTAVYYCARDTPGFDYWGQGTLVTVSS VL: QSVLTQPPSASGTPGQRVTISCTGSSSNIGNNAVNWYQQLPGTAPKLLIYYDYYQSSGVPDRFSGSKSGTSASLAISGLRSEDEADYYCGAWDYSLSAYVFGGGTKLTVLG"
0.28,5.74e-05,205000,"#9104a-E3 (antibody, human IgG4 S228P, lambda, V domains shown, VH of #9104v-H13 with VL of #9104v-L65; full-length IgG, lambda) VH: EVQLLESGGGLVQPGGSLRLSCAASGFTFSNYYMSWVRQAPGKGLEWVSGIYYGSGIPYYANSVKGRFTISRDNSKNTLYLQMNSLRAEDTAVYYCARDTPGFDYWGQGTLVTVSS VL: QSVLTQPPSASGTPGQRVTISCTGSSSNIGNNAVNWYQQLPGTAPKLLIYYDYYQSSGVPDRFSGSKSGTSASLAISGLRSEDEADYYCGAWDYSLSAYVFGGGTKLTVLG"
0.273,6.36e-05,234000,"#9104a-E5 (antibody, human IgG4 S228P, lambda, V domains shown, VH of #9104v-H19 with VL of #9104v-L65; full-length IgG, lambda) VH: EVQLLESGGGLVQPGGSLRLSCAASGFTFSNYYMSWVRQAPGKGLEWVSGIYYGSGVPYYADSVKGRFTISRDNSKNTLYLQMNSLRAEDTAVYYCARDTPGFDYWGQGTLVTVSS VL: QSVLTQPPSASGTPGQRVTISCTGSSSNIGNNAVNWYQQLPGTAPKLLIYYDYYQSSGVPDRFSGSKSGTSASLAISGLRSEDEADYYCGAWDYSLSAYVFGGGTKLTVLG"
